Measured values as given in publication PMC4551934, “RNA aptamer inhibitors of a restriction endonuclease”.
Numbering of substitutions follows the chain as printed.

B1: anti-KpnI aptamer 29 (16/23/29) (structured_RNA)
RNA: GGGAUAUCCCUACAUGAUAAUCGGGUGAGUAAGGCCUAAACAUCAUGCAUGAAGCGUUCCAUAUUUUU
B2: anti-KpnI aptamer 20 (structured_RNA)
RNA: GGGAUAUCCUUCAUGAUUCGGAAAAGCGUAACCGCGGCCAAUCAUGCAUGAAGCGUUCCAUAUUUUU
B3: anti-KpnI aptamer 30 (structured_RNA)
RNA: B2 RNA with A40G
B4: anti-KpnI aptamer 24 (structured_RNA)
RNA: GGGAUAUCCUUCAUGGUGUGAUUAAACGUAAUCUCAAUCGAUCAUGCAUGAAGCGUUCCAUAUUUUU

Legend:
[1] = target: KpnI restriction endonuclease (UniProt P25237 1-218); assay: cleavage inhibition; 20 nM DNA probe N10; Kd EMSA: 10 mM Bis-Tris-Propane-HCl pH 7, 10 mM MgCl2, 100 ug/ml BSA, 37 C, 30 min; screen EMSA in selection buffers, 37 C: 10 mM HEPES pH 7.5 with 400 mM NaCl/; settings: protein: commercial, chain copies: 2
KpnI restriction endonuclease, sequence (P25237 whole entry): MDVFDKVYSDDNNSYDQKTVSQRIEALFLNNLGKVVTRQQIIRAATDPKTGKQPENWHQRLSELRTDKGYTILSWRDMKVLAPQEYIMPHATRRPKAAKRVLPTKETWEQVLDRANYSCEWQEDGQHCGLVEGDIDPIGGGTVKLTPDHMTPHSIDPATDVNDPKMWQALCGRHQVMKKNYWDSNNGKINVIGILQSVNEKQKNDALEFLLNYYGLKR

[2] = target: T1, BamHI(E111A) restriction endonuclease (UniProt P23940 1-213, E111A); assay: EMSA; 20 nM protein; Kd EMSA: 10 mM Bis-Tris-Propane-HCl pH 7, 10 mM MgCl2, 100 ug/ml BSA, 37 C, 30 min; screen EMSA in selection buffers, 37 C: 10 mM HEPES pH 7.5 with 400 mM NaCl/; settings: protein: commercial; chain copies: 2; label: 32P; hairpin
T1 sequence: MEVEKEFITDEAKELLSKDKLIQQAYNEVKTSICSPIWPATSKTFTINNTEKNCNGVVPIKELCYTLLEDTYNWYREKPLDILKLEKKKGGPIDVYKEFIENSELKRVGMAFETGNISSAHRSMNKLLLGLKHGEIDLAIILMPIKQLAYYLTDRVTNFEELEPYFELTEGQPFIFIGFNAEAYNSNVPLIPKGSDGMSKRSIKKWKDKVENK

Binder	IC50 ([1]; hairpin) [nM]	IC50 [1] [nM]	IC50 ([1]; label: 32P, hairpin) [nM]	binding result [2]
GGGCAUGAUUCGGAAAAGCGUAACCGCGGCCAAUCAUG (structured_RNA) [aptamer 20s (38 nt)]	13 ± 1.5			
GGGCAUGAUUCGGAUAUGCGUAACCGCGGCCAAUCAUG (structured_RNA) [20_AAA]		104000		
B1			153 ± 11	no binding
GGGUCGGAAAAGCGUAACCGCGGCCA (structured_RNA) [20_26 nt]		77000		
B2			36.1 ± 3.9	no binding
B3			23.1 ± 0.8	no binding
B4				no binding
